Results published in PMC3581772.

Experiments:
[1] = biological target: T1, I59T human lysozyme (human) (UniProt P61626)
T1 sequence: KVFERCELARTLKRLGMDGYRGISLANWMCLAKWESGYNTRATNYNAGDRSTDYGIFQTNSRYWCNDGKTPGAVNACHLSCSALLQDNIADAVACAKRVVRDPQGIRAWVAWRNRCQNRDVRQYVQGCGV

[2] = biological target: amyloid β peptide Aβ(1–42) (UniProt P05067)

Sequence of trypsin-activated α2M (P01023 whole entry, looked up): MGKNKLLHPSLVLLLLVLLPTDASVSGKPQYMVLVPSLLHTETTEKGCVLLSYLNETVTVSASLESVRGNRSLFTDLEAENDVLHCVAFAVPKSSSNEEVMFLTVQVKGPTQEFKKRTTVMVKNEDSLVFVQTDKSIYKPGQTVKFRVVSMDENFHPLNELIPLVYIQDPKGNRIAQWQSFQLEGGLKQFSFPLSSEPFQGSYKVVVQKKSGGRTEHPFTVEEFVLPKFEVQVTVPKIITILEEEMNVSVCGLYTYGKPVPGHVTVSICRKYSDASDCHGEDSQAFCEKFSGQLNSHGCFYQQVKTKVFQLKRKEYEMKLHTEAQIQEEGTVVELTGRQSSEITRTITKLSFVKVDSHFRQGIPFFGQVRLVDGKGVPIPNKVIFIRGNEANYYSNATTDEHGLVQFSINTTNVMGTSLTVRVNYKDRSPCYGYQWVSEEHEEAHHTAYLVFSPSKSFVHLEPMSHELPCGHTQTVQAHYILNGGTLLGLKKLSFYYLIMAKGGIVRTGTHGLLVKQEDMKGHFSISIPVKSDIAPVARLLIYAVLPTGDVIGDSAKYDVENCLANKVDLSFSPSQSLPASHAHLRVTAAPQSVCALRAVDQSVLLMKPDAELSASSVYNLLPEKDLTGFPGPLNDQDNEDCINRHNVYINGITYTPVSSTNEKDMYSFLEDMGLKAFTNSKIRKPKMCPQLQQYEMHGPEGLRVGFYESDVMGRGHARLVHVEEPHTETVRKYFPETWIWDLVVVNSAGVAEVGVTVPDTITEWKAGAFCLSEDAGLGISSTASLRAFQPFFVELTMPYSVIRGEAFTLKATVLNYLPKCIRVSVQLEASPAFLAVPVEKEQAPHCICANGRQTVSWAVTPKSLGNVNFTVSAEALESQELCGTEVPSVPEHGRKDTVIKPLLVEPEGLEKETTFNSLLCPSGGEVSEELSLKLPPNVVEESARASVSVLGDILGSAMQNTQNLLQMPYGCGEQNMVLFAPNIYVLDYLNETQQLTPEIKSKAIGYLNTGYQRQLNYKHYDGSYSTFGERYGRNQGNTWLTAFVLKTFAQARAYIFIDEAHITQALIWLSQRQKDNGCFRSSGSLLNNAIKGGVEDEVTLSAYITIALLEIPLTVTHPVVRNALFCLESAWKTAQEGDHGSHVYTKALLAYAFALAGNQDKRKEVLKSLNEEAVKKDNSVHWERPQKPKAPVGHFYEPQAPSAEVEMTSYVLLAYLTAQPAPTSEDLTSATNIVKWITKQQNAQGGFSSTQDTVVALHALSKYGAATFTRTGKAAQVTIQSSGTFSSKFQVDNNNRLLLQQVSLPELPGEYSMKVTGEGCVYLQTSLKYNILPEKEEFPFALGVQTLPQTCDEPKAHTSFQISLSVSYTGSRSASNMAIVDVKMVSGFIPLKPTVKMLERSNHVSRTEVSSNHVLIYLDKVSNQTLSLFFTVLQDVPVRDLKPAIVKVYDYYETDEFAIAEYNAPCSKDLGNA

trypsin-activated α2M (from UniProt P01023 24-1474) (complex)
decrease of ThT fluorescence at the endpoint of I59T lysozyme fibril formation, lysozyme-to-α2M 10:1 [1]: > 90% | suppression of ThT signal at the endpoint of Aβ(1–42) fibril formation, Aβ-to-α2M 10:1 [2]: > 80%
